This is an account of results in patent US20260167728A1 (published 2026).

Positions count from the first letter of the chain named.

The target of one test is huCD3e (human, UniProt P07766 23-126). Briefly: Octet primary screen, crude lysate. Here is the method:
Stability and affinity of the individually expressed molecules in the form of crude lysate was evaluated by Octet. […] The binding of these anti-CD3 molecules (CD3.227, CD3.228, CD3.229 and CD3.230) to human and cynomolgus CD3 was measured by Octet and the Tₘ was measured by Differential Scanning Fluorimetry. All variants were paired with an anti-PSMA VHH.

The target in the next test is T1, cyCD3e-Fc (cynomolgus, UniProt Q95LI5 22-117).
T1 construct: not shown: Fc, not described
T1 sequence (looked up): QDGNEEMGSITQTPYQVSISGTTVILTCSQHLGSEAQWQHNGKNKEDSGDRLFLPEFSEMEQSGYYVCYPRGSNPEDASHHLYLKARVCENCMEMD
Briefly: Octet, purified paTCE. Here is the method:
(§1) […] […] The binding of these anti-CD3 molecules (CD3.227, CD3.228, CD3.229 and CD3.230) to human and cynomolgus CD3 was measured by Octet and the Tₘ was measured by Differential Scanning Fluorimetry. All variants were paired with an anti-PSMA VHH.

Another test deals with T2, huCD3e-Fc (human, UniProt P07766 23-126).
T2 construct: not shown: Fc, not described
Briefly: Octet, purified paTCE. As to the method: as §1

Test [1] addresses T3, human CD3 (human, UniProt P07766 23-126). Briefly: Octet, crude lysate. As to the method: Structural considerations included: possible contact disruption, anticipated steric clashes, side chain charge maintenance and possible pockets filling. Stability and affinity of the individually expressed molecules in the form of crude lysate was evaluated by Octet (ForteBio).
The target in test [2] is T4, huCD3e-mFc (human, UniProt P07766 23-126).
T4 construct: not shown: mFc, not described
Put plainly: Pool 3 screen, R2.

Test [3] addresses T4, huCD3e-mFc. Briefly: Pool 3 screen, R3.
Test [4] deals with T4, huCD3e-mFc. Put plainly: Pool 3 screen.
For test [5], the target named is T3, human CD3. Briefly: Octet.
The target of test [6] is T5, human EGFR (human, UniProt P00533 25-645, limits assumed). Put plainly: cell-based or functional assay.
In test [7] the target is T5, human EGFR. Briefly: BLI, room temperature. As to the method:
Each construct was expressed in small-scale and purified. Thermal stability was determined by Differential Scanning Fluorimetry. Melting temperature (Tₘ) determined by Differential Scanning Fluorimetry experiments described herein were performed either in duplicate or triplicate using GloMelt™ dye and QuantStudio5™. GloMelt™ dye undergoes fluorescence enhancement upon binding to hydrophobic regions of denatured proteins. Therefore, the dye can be used to detect protein unfolding or measure thermal stability. GloMelt™ dye is optimized for detection in the SYBR® Green channel of qPCR instruments. The Differential Scanning Fluorimetry experiments were performed in 96-well plates with 10 μg protein/reaction (equal to 0.5 mg/mL final protein concentration), reaction buffer, and GloMelt™ 10× dye according to manufacturer's instructions. Fluorescence of 96-well plates was read and melt curve plots were generated in the QuantStudio5™ qPCR system. Binding affinity was analyzed with bio-layer interferometry at room temperature with human EGFR as the antigen.

In test [8] the target is T3, human CD3. Briefly: method not stated.

T2 sequence (P07766 23-126): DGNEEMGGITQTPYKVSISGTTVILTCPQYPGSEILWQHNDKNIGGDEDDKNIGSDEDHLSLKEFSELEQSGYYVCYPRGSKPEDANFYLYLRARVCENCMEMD
T4 sequence (P07766 23-126): as above
Chain of huCD3e (P07766 23-126): as above
T3 sequence (P07766 23-126 limits assumed): as the sequence (P07766 23-126) above

B1: AC3471 (CD3.23, WT) (bispecific antibody, V domains shown)
VH: EVQLLESGGGIVQPGGSLKLSCAASGFTFNTYAMNWVRQAPGKGLEWVARIRSKYNNYATYYADSVKDRFTISRDDSKNTVYLQMNNLKTEDTAVYYCVRHENFGNSYVSWFAHWGQGTLVTVSS
VL: ELVVTQEPSLTVSPGGTVTLTCRSSNGAVTSSNYANWVQQKPGQAPRGLIGGTNKRAPGTPARFSGSLLGGKAALTLSGVQPEDEAVYYCALWYPNLWVFGGGTKLTVL
notes: Pool 2 format (remarks)
As for B1, the Kd in the test with huCD3e was found to be 13.5 nM.

B2: CD3.23 anti-CD3 scFv (scFv, V domains shown)
VH: B1 VH
VL: B1 VL
notes: Parental domain
In the test with cyCD3e-Fc, B2 had a Kd of 130 nM, a dissociation rate constant (koff) of 0.0312 s⁻¹ and an association rate constant (kon) of 240000 M⁻¹ s⁻¹. In the test with huCD3e-Fc, this molecule came in with a Kd of 131 nM, a koff of 0.0289 s⁻¹ and a kon of 220000 M⁻¹ s⁻¹.

B3: AC2717 (CD3.23, WT) (bispecific antibody, V domains shown)
VH: B1 VH
VL: B1 VL
notes: Pool 2 format (remarks); paired with an anti-PSMA VHH variant
On to B3, for which, in the test with huCD3e, the Kd came out at 12.9 nM. That is a double-digit nanomolar value.

B4: AC3364 (CD3.23-L7, WT) (bispecific antibody, V domains shown)
VH: B1 VH
VL: B1 VL
notes: Pool 1 format (remarks)
On to B4, for which the Kd with human CD3 [1] came out at 8.5 nM.

B5: AC3796 (CD3.292) (scFv, V domains shown)
VH: B1 VH with L5V, K19R, N30S, A49G, S53T, Y55R, D68G, N87S
VL: B1 VL
notes: Pool 3 format (remarks)
In the case of B5, the equilibrium dissociation constant (Kd) with huCD3e-mFc [2] stood at 4.1 nM; with huCD3e-mFc [3] it was 3 nM; in the test with huCD3e-mFc [4], 3.89 nM; with human CD3 [5], 3.89 nM.

B6: AC3682 (CD3.251) (bispecific antibody, V domains shown)
VH: B1 VH with L5V, K19R, A49G, Y55R, Y61T, N87S
VL: B1 VL
notes: Pool 2 format (remarks)
As for B6, the Kd with huCD3e was 32.8 nM. That is a double-digit nanomolar value.

B7: AC2908 (EGFR.60/CD3.23 paTCE) (bispecific antibody)
scFv 1: EIVLTQSPGTLSLSPGERATLSCQASQDISNYLNWYQQKPGQAPRLLIYDASNLETGIPDRFSGSGSGTDFTLTISRLEPEDFAVYYCQHFDHLPLAFGQGTKVEIKGATPPETGAETESPGETTGGSAESEPPGEGQVQLQQWGAGLLKPSETLSLTCAVYGGSVSSGDYYWTWIRQPPGKGLEWIGHIYYSGNTNYNPSLKSRVTISVDTSKNQFSLKLSSVTAADTAVYYCARDRVTGAFDIWGQGTLVTVSS
scFv 2: ELVVTQEPSLTVSPGGTVTLTCRSSNGAVTSSNYANWVQQKPGQAPRGLIGGTNKRAPGTPARFSGSLLGGKAALTLSGVQPEDEAVYYCALWYPNLWVFGGGTKLTVLGATPPETGAETESPGETTGGSAESEPPGEGEVQLLESGGGIVQPGGSLKLSCAASGFTFNTYAMNWVRQAPGKGLEWVARIRSKYNNYATYYADSVKDRFTISRDDSKNTVYLQMNNLKTEDTAVYYCVRHENFGNSYVSWFAHWGQGTLVTVSS
notes: EGFR library format (remarks)
In the case of B7, the “EC50 HT-29 (pM), in vitro cytotoxicity, E:T 5:1” value with human EGFR [6] came to 94 pM. The dissociation constant (Kd) with human EGFR [7] is 7.3 nM; with human CD3 [8] it was about 203 nM.

B8: AC2920 (EGFR.72/CD3.23 paTCE) (bispecific antibody)
scFv 1: B7 scFv 1 with G9A, D60A, R77S
scFv 2: B7 scFv 2
notes: EGFR library format (remarks)
B8: in the test with human EGFR [6], the “EC50 HT-29 (pM), in vitro cytotoxicity, E:T 5:1” value was 85 pM. In addition, the dissociation constant Kd with human EGFR [7] was 4.4 nM; in the test with human CD3 [8], about 203 nM.
